From the DeepSol protein solubility set

experiment: soluble on expression in E. coli; label from the status in PepcDB or PDB records

Sequence	soluble on expression in E. coli
MSSQSIDDKFMSITQMKNLIHYVKKNDALSHLCIYILIITGSRFKPVQHLRYEDLNFKKSCIHLNDTKNKYSKRNVKVRIKDLEYIQSVINKHPINQNGYIFHNFINFISYSAINDVLVRFCLKYKYDKYTLKSLRHTHCSYLLAKGISIQYISKRLGHADIHTTLKIYSHLIKEFEDSENSLIEKNLNDLFSDLEHHHHHH	not soluble
MSSRAVSLLSRVISQNRGLASLRETVGERDASLLYEPKFQDSREFPEYNTINVRIQGHDFGSLEKYQAYIHKTAKRFGFTVVDSYAVAAQTQKAITYKPYSTVSESEIDMSTYDRVVRLSDVAAPRFSLFSQIIRAHIPIGVTMTVKEHEKVDEDSRYIPDLLLKQKQEELKALDDPNVRRNLGWE	not soluble
MSSSHSRAGQSAAGAAPGGGVDTRDAEMPATEKDLAEDAPWKKIQQNTFTRWCNEHLKCVSKRIANLQTDLSDGLRLIALLEVLSQKKMHRKHNQRPTFRQMQLENVSVALEFLDRESIKLVSIDSKAIVDGNLKLILGLIWTLILHYSISMPMWDEEEDEEAKKQTPKQRLLGWIQNKLPQLPITNFSRDWQSGRALGALVDSCAPGLCPDWDSWDASKPVTNAREAMQQADDWLGIPQVITPEEIVDPNVDEHSVMTYLSQFPKAKLKPGAPLRPK	soluble
MSSTKIDTTKPLSILLLGVDTGADGRIDKGNSDTIMVVTINPQTKKTLITSIPRDSLAEMVGDQDTNVQKLNAAYNIGGSKMAKASVSKLFNVPIDYYATINMGGLKQIVDAVGGVTITSPLNVSFDHITVTKGKHHLNGKQALSYTRMRYQDPRGDYGRQLRQQQVMRAVLAKLAETKTYSRYNQLLTSLKGNLQTDLSFNDLVGLATHDRANMKHIQSTQVIGSPAWINTSSYQILSTKTLQQTSDRLRTQLGLSTETLTNMETKLNAKNTVYDGKTNLNYDTQGLDKITYSDNTKLEHHHHHH	soluble
MSSTRTASGRTSGRNGTWRNWGGNVSARPAREVTPASVDELADAVRRAAEDGQRVKAVGTGHSFTSIAATDGVLIRPQLLTGIRSIDRDAMTVTVEAGTPLKRLNMALAREGLSLTNMGDIMEQTVSGATSTGTHGTGRDSASIAAQIRGLELVTADGSVLTCSADENPEVFAAARIGLGALGVVTAITFAVEPVFLLTAREEPMPFDRVLADFDALWSENEHFEFYWFPHTNSTNTKRNNRSAGPERPVGRFQGWLDDEFLSNGLFQAVNWVGRAAPATIPSIARISSRALSARTYTDTPYKVFTSPRRVRFVEMEYAVPREAVVEVLRELRTMVDRSRLRISFPVEVRTAPADDITLSTASARDSAYIAVHMFRGTPYQAYFTAAERIFTAHEGRPHWGKVHTRDAGYFSRVYPRFGEFTALRDRLDPDRLFQNDYLRRVLGPLEHHHHHH	soluble
MSSVVVVGTQWGDEGKGKITDFLSEHAEVVARYQGGNNAGHTIVFGGVKYKLHLIPSGIFYKEKICVIGNGLVVDPKALLEELKYLHDRGVSTDNLRVSNRAHVILPYHLKQDELEEASKGDNKIGTTKKGIGPAYMDKAARIGIRMADLLDREAFKEKLEQNLAQKNRLFEKMYDTEGFSVDEIFEEYFEYGQQIAQYVCDTSVVLNDALDNNHRVLFEGAQGVMLDIDHGTYPFVTSSNPIAGGVTVGTGVGPAKVTRVVGVCKAYTSRVGDGPFPTELHDEIGHQIREVGREYGTTTGRPRRVGWFDSVVVRHARRVSGLTDLSLNSIDVLTGIPTLKICVAYKCDGKVIDEVPANLNILAKCEPVYEELPGWTEDITGVRSLDELPENARKYVERVSELTGIQLSMFSVGPDRNQTNIVRNVYEA	not soluble
MSSYEMFADKNIVAGELANLMASAGWGTEGDYDATAIEKSLSAYPMIAYCRDSDGLLVGYISAFTDGAFSTFVGELVVRPTYQQRGIGSALLAMIVEKCRGVPVYATPFQGTEKFFLDRGFRVPERPMSVVSMRNVT	not soluble
